Like-named read-outs stand apart in the source and are kept apart here.
B1: Heparin lyase II: heparin lyase II (heparinase II, no EC number) purified to homogeneity from Flavobacterium heparinum (protein, UniProt C6XZB6 26-772, looked up)
Heparin and heparin-sulfate …: QTKADVVWKDVDGVSMPIPPKTHPRLYLREQQVPDLKNRMNDPKLKKVWADMIKMQEDWKPADIPEVKDFRFYFNQKGLTVRVELMALNYLMTKDPKVGREAITSIIDTLETATFKPAGDISRGIGLFMVTGAIVYDWCYDQLKPEEKTRFVKAFVRLAKMLECGYPPVKDKSIVGHASEWMIMRDLLSVGIAIYDEFPEMYNLAAGRFFKEHLVARNWFYPSHNYHQGMSYLNVRFTNDLFALWILDRMGAGNVFNPGQQFILYDAIYKRRPDGQILAGGDVDYSRKKPKYYTMPALLAGSYYKDEYLNYEFLKDPNVEPHCKLFEFLWRDTQLGSRKPDDLPLSRYSGSPFGWMIARTGWGPESVIAEMKVNEYSFLNHQHQDAGAFQIYYKGPLAIDAGSYTGSSGGYNSPHNKNFFKRTIAHNSLLIYDPKETFSSSGYGGSDHTDFAANDGGQRLPGKGWIAPRDLKEMLAGDFRTGKILAQGFGPDNQTPDYTYLKGDITAAYSAKVKEVKRSFLFLNLKDAKVPAAMIVFDKVVASNPDFKKFWLLHSIEQPEIKGNQITIKRTKNGDSGMLVNTALLPDAANSNITSIGGKGKDFWVFGTNYTNDPKPGTDEALERGEWRVEITPKKAAAEDYYLNVIQIADNTQQKLHEVKRIDGDKVVGVQLADRIVTFSKTSETVDRPFGFSVVGKGTFKFVMTDLLPGTWQVLKDGKILYPALSAKGDDGALYFEGTEGTYRFLR
B2: Heparin lyase III: heparin lyase III (heparitinase EC 4.2.2.8) purified to homogeneity from Flavobacterium heparinum (protein, UniProt Q59289 25-659, looked up)
Heparin-sulfate lyase: QSSSITRKDFDHINLEYSGLEKVNKAVAAGNYDDAAKALLAYYREKSKAREPDFSNAEKPADIRQPIDKVTREMADKALVHQFQPHKGYGYFDYGKDINWQMWPVKDNEVRWQLHRVKWWQAMALVYHATGDEKYAREWVYQYSDWARKNPLGLSQDNDKFVWRPLEVSDRVQSLPPTFSLFVNSPAFTPAFLMEFLNSYHQQADYLSTHYAEQGNHRLFEAQRNLFAGVSFPEFKDSPRWRQTGISVLNTEIKKQVYADGMQFELSPIYHVAAIDIFLKAYGSAKRVNLEKEFPQSYVQTVENMIMALISISLPDYNTPMFGDSWITDKNFRMAQFASWARVFPANQAIKYFATDGKQGKAPNFLSKALSNAGFYTFRSGWDKNATVMVLKASPPGEFHAQPDNGTFELFIKGRNFTPDAGVFVYSGDEAIMKLRNWYRQTRIHSTLTLDNQNMVITKARQNKWETGNNLDVLTYTNPSYPNLDHQRSVLFINKKYFLVIDRAIGEATGNLGVHWQLKEDSNPVFDKTKNRVYTTYRDGNNLMIQSLNADRTSLNEEEGKVSYVYNKELKRPAFVFEKPKKNAGTQNFVSIVYPYDGQKAPEISIRENKGNDFEKGKLNLTLTINGKQQLVLVP

Key:
[1] = Heparin lyase activity assay (change of absorbance at 232 nm), heparin as substrate; format: biochemical, porcine
Procedure: The spectrophotometer was adjusted to the optimum temperature of the particular lyase being assayed. […] A measured quantity of lyase was added, bringing the final volume to 400 μl and the cuvette was gently mixed. The microcuvette was then immediately returned to the spectrophotometer and the change of absorbance at 232 nm was measured at 10 seconds intervals over 3 min. […] The specific activity was then calculated by dividing the micromoles of product produced per minute by the milligrams of protein in the cuvette. […] G., and Linhardt, R. J. (1989) Carbohydr. Res. 190, 219-233. Protein concentration was measured by the Bradford assay, Bradford, M. M. (1976) Anal. Biochem. 72, 248-254, based on a bovine serum albumin standard curve. […] The activities of each lyase (I acting on heparin, II acting on both heparin and heparan sulfate, and III acting on heparan sulfate) were then determined at different pH values. The buffer giving optimum activity for each heparin lyase was selected by testing buffers with buffering capacity near the pH optima calculated in the previous experiments. These buffers were: Tris-HCl, sodium phosphate, HEPES, MOPS, TES, and BTP-CHl. […] The heparin lyase assay solutions were made by diluting enzyme in 50 mM sodium phosphate buffer adjusted to the appropriate pH as previously described. Heparin lyase activity was determined in each buffer. Activity was assayed both immediately after addition to each buffer and following incubation for 24 h at 37° C. The salt concentration for optimum activity was investigated. Sodium chloride, potassium chloride, and sodium and potassium acetate were used to differentiate between ionic strength and specific ion affects. […] The temperature was adjusted in a temperature-regulated spectrophotometer and equilibrated for 10 min before the assay was started. Michaelis-Menten constants were determined using the optimized conditions. The final absorbance value for total depolymerization was divided by 20 to find a value that represented 5% reaction completion. The purified lyase preparations were diluted so that 5% of total depolymerization would be reached only at the end of a 3-min assay. The reaction velocities at specific molar concentrations for each lyase and their substrates were used for kinetic analysis using EZ-FIT hyperbolic curve-fitting program of […]. (1988) Anal. Biochem. 174, 437-447). Substrate solutions were prepared from 50 mg/ml heparin and 40 mg/ml for heparan sulfate stock solutions. […] The amount of purified lyase used was sufficient for complete depolymerization of heparin or heparan sulfate substrates within 30 min. The initial rate of depolymerization of each polysaccharide was measured, the reaction was then continued for 24 h, and the final level of polysaccharide depolymerization was assessed by measuring the final absorbance at 232 nm and expressed as percent activity.

[2] = Stability toward storage, freeze thawing and lyophilization; format: physicochemical
Procedure: […] […] These lyase solutions were then divided into 3 equal aliquots, and one of each was subjected to either freeze thawing, lyophilization, or retained as a control in an ice bath. The activities of heparin lyases I-III were determined in the presence and absence of excipients after: 1) brief storage at 4° C.; 2) freezing at −70° C. and thawing; and 3) −70° C. freezing, lyophilization, and reconstituting with an equal volume of cold water.

[3] = Rice and Lindhardt (1989), cited from earlier work

| Molecule | Unit/mg (specific activity) ([1]; final GPC-HPLC purification step, acting on heparin) | average number of sites acted at in the heparin polymer ([1]; final level of depolymerization, 24 h) | initial activity in six buffers (Tris-HCl, sodium phosphate, HEPES, MOPS, TES, BTP-HCl) ([1]; heparin, 50 mM buffer at optimum pH) | temperature for maximum activity ([1]; heparin, 50 mM sodium phosphate at optimum pH, 15-55° C.) | Km ([1]; heparin, I: 30° C., pH 7.15, 100 mM sodium chloride, II: 35° C., pH 7.3, value ± standard error, read-out: Km(app)) | optimum temperature (summary) ([1]; heparin, activity greater at higher temperatures but stability reduced) | Vmax ([1]; heparin, optimized conditions, value ± standard error) | pH optimum for activity ([1]; on heparin) | specific activity ([1]; purified lyase, toward heparin) | Km (Michelis-Menton constant, summary) ([1]; with heparin) | V(max) (summary) ([1]; with heparin) | Km ([1]; with heparin, read-out: Km (Michelis-Menton constant, summary)) | activity retained ([2]; under all storage conditions) | activity retained ([2]; absence of excipient, stored at 4° C.) | retention of activity ([2]; addition of 5% lactose) | activity lost ([2]; on freeze-thawing or freeze-drying) | increase of recovered activity ([2]; presence of BSA) | Vmax (reported) [3] | Km ([3]; read-out: apparent Km (reported)) |
| --- | --- | --- | --- | --- | --- | --- | --- | --- | --- | --- | --- | --- | --- | --- | --- | --- | --- | --- | --- |
| B1 | 19 Unit/mg | 14 sites | remarkably similar in all six buffers | 40 °C | 57.7 ± 6.56 µM | 35 °C | 16.7 ± 0.555 μmol/min mg protein | 7.3 | 19 units/mg | 0,129 mg/ml | 15.04 | 9.23 µM | greater than 75% |  |  |  |  |  |  |
| B2 |  |  |  |  |  |  |  |  |  |  |  |  |  | retains most of its activity | destabilizes | 70-80% | 20-25% | 0.00357 µmol/min | 5.7 µM |

From patent USRE41461E1, “Purification, composition and specificity of Heparinase I, II, and III from Flavobacterium heparinum” (Massachusetts Institute of Technology, priority 1992, dated 2010)
